Experimental data taken from PMC6739345, “CAND1 regulates lunapark for the proper tubular network of the endoplasmic reticulum” (Scientific Reports, 2019).
Ends that are not written are not given here.

T1: MBP-fused CAND1 (human, UniProt Q86VP6 1-1230)
T1 construct: Cullin-associated and neddylation-dissociated 1 (CAND1), human; cDNA bought from the Kazusa DNA Research Institute, in pMAL-C2; also called MBP-CAND1; source: E. coli Rosetta-Gami, purified (amylose resin, eluted with maltose)
T1 sequence (looked up): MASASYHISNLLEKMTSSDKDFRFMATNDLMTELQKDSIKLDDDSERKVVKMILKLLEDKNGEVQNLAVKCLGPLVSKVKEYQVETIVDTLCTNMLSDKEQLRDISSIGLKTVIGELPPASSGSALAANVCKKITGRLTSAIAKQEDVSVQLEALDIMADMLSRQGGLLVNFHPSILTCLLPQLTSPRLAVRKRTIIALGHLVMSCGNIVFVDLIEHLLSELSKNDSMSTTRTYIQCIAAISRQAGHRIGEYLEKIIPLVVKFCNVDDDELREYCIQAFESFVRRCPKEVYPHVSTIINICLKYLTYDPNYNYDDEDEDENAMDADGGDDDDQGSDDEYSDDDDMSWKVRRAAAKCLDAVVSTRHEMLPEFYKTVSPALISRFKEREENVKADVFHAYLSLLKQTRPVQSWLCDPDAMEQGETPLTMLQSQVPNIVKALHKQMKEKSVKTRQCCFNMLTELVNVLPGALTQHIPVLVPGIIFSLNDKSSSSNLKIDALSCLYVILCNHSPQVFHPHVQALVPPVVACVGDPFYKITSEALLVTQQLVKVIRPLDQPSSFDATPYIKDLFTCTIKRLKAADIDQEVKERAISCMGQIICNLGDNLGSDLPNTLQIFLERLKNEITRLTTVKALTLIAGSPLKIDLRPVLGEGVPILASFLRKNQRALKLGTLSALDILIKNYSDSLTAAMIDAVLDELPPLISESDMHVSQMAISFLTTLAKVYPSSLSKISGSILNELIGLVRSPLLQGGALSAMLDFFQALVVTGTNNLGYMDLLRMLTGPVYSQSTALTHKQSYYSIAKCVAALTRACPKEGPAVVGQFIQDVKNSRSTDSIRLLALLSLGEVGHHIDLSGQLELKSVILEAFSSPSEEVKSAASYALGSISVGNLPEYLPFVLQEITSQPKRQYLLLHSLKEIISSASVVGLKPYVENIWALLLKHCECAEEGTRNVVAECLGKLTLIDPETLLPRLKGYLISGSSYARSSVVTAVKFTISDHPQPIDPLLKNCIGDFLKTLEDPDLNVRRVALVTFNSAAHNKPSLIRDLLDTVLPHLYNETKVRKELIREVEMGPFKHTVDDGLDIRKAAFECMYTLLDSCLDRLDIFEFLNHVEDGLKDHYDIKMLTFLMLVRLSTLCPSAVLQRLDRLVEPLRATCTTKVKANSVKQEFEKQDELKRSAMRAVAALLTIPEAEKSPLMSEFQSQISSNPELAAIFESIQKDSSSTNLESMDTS

B1: hexa histidine-tagged Lnp, wild type (natural protein, human, UniProt Q9C0E8 1-428, looked up)
chain: MGGLFSRWRTKPSTVEVLESIDKEIQALEEFREKNQRLQKLWVGRLILYSSVLYLFTCLIVYLWYLPDEFTARLAMTLPFFAFPLIIWSIRTVIIFFFSKRTERNNEALDDLKSQRKKILEEVMEKETYKTAKLILERFDPDSKKAKECEPPSAGAAVTARPGQEIRQRTAAQRNLSPTPASPNQGPPPQVPVSPGPPKDSSAPGGPPERTVTPALSSNVLPRHLGSPATSVPGMGLHPPGPPLARPILPRERGALDRIVEYLVGDGPQNRYALICQQCFSHNGMALKEEFEYIAFRCAYCFFLNPARKTRPQAPRLPEFSFEKRQVVEGSSSVGPLPSGSVLSSDNQFNEESLEHDVLDDNTEQTDDKIPATEQTNQVIEKASDSEEPEEKQETENEEASVIETNSTVPGADSIPDPELSGESLTAE
notes: lunapark (Lnp), human; cDNA amplified from a human cDNA library, in pET28a(+); also called His-Lnp; His-Lnp WT; source: E. coli BL21 (DE3), purified (Ni-agarose)
B2: GST-fused Lnp (lunapark) (natural protein, human, UniProt Q9C0E8 1-428, looked up)
chain: B1 chain
notes: lunapark (Lnp), human; cDNA amplified from a human cDNA library, in pGEX-6P-1; the same cDNA was subcloned into all vectors; also called GST-Lnp; GST-Lnp WT; source: E. coli BL21 (DE3), purified (glutathione Sepharose)
B3: GST-Lnp Ub (N-terminal ubiquitin ligase domain of Lnp) (domain or fragment, human, UniProt Q9C0E8 1-45, looked up)
chain: {GST}-MGGLFSRWRTKPSTVEVLESIDKEIQALEEFREKNQRLQKLWVGR
notes: lunapark (Lnp), human, N-terminal cytoplasmic domain (1–45 aa, Ub), in pGEX-6P-1; source: E. coli BL21 (DE3), purified (glutathione Sepharose, eluted with glutathione)
B4: His-Lnp ΔCC (Lnp lacking the coiled-coil domain) (natural protein, human, UniProt Q9C0E8 1-428, looked up)
chain: MGGLFSRWRTKPSTVEVLESIDKEIQALEEFREKNQRLQKLWVGRLILYSSVLYLFTCLIVYLWYLPDEFTARLAMTLPFFAFPLIIWSIRTVIIFFFSKKAKECEPPSAGAAVTARPGQEIRQRTAAQRNLSPTPASPNQGPPPQVPVSPGPPKDSSAPGGPPERTVTPALSSNVLPRHLGSPATSVPGMGLHPPGPPLARPILPRERGALDRIVEYLVGDGPQNRYALICQQCFSHNGMALKEEFEYIAFRCAYCFFLNPARKTRPQAPRLPEFSFEKRQVVEGSSSVGPLPSGSVLSSDNQFNEESLEHDVLDDNTEQTDDKIPATEQTNQVIEKASDSEEPEEKQETENEEASVIETNSTVPGADSIPDPELSGESLTAE
notes: lunapark (Lnp), human, lacking the coiled-coil domain (100–143 aa), in pET28a(+); source: E. coli BL21 (DE3), purified (Ni-agarose)
B5: His-Lnp ΔZn + LNPARK (Lnp lacking the zinc finger motif and the following LNPARK amino acids) (natural protein, human, UniProt Q9C0E8 1-428, looked up)
chain: MGGLFSRWRTKPSTVEVLESIDKEIQALEEFREKNQRLQKLWVGRLILYSSVLYLFTCLIVYLWYLPDEFTARLAMTLPFFAFPLIIWSIRTVIIFFFSKRTERNNEALDDLKSQRKKILEEVMEKETYKTAKLILERFDPDSKKAKECEPPSAGAAVTARPGQEIRQRTAAQRNLSPTPASPNQGPPPQVPVSPGPPKDSSAPGGPPERTVTPALSSNVLPRHLGSPATSVPGMGLHPPGPPLARPILPRERGALDRIVEYLVGDGPQNRYALTRPQAPRLPEFSFEKRQVVEGSSSVGPLPSGSVLSSDNQFNEESLEHDVLDDNTEQTDDKIPATEQTNQVIEKASDSEEPEEKQETENEEASVIETNSTVPGADSIPDPELSGESLTAE
notes: lunapark (Lnp), human, lacking the zinc finger motif and the following LNPARK amino acids (275–309 aa), in pET28a(+); source: E. coli BL21 (DE3), purified (Ni-agarose)
B6: His-Lnp ΔUb (Lnp lacking the N-terminal ubiquitin ligase domain) (domain or fragment, human, UniProt Q9C0E8 46-428, looked up)
chain: LILYSSVLYLFTCLIVYLWYLPDEFTARLAMTLPFFAFPLIIWSIRTVIIFFFSKRTERNNEALDDLKSQRKKILEEVMEKETYKTAKLILERFDPDSKKAKECEPPSAGAAVTARPGQEIRQRTAAQRNLSPTPASPNQGPPPQVPVSPGPPKDSSAPGGPPERTVTPALSSNVLPRHLGSPATSVPGMGLHPPGPPLARPILPRERGALDRIVEYLVGDGPQNRYALICQQCFSHNGMALKEEFEYIAFRCAYCFFLNPARKTRPQAPRLPEFSFEKRQVVEGSSSVGPLPSGSVLSSDNQFNEESLEHDVLDDNTEQTDDKIPATEQTNQVIEKASDSEEPEEKQETENEEASVIETNSTVPGADSIPDPELSGESLTAE
notes: lunapark (Lnp), human, lacking Lnp Ub (the N-terminal cytoplasmic domain, 1–45 aa), in pET28a(+); The start 46 follows from the printed limits of Lnp Ub (1–45 aa); source: E. coli BL21 (DE3), purified (Ni-agarose)
B7: His-Lnp ΔTM (transmembrane domains replaced by a (GGS)3 linker) (natural protein, human)
chain: MGGLFSRWRTKPSTVEVLESIDKEIQALEEFREKNQRLQKLWVGGGSGGSGGSRTERNNEALDDLKSQRKKILEEVMEKETYKTAKLILERFDPDSKKAKECEPPSAGAAVTARPGQEIRQRTAAQRNLSPTPASPNQGPPPQVPVSPGPPKDSSAPGGPPERTVTPALSSNVLPRHLGSPATSVPGMGLHPPGPPLARPILPRERGALDRIVEYLVGDGPQNRYALICQQCFSHNGMALKEEFEYIAFRCAYCFFLNPARKTRPQAPRLPEFSFEKRQVVEGSSSVGPLPSGSVLSSDNQFNEESLEHDVLDDNTEQTDDKIPATEQTNQVIEKASDSEEPEEKQETENEEASVIETNSTVPGADSIPDPELSGESLTAE
notes: lunapark (Lnp), human, the stretch before the transmembrane domains (45–100 aa); polypeptide linker (GGS)3 in place of residues 45–100; lunapark (Lnp), human, the stretch after the transmembrane domains (45–100 aa); source: E. coli BL21 (DE3), purified (Ni-agarose)

How the values were obtained:
MBP-fused CAND1 [1] = target: T1, MBP-fused CAND1; test: sucrose density gradient ultracentrifugation; His-Lnp (0.6 nmol) alone or incubated with MBP-CAND1 (2 nmol) in buffer H (20 mM Tris-HCl pH 7.5, 150 mM NaCl, 1% Triton X-100), 10–40% (w/v) sucrose gradient, 200,000 x g, 4 °C, 20 h; 17 fractions, CBB staining; details: both partners purified
[2] = target: the molecule itself; test: as above
MBP-fused CAND1 [3] = target: T1, MBP-fused CAND1; test: pull-down; GST-Lnp or GST-Lnp Ub (0.6 nmol) immobilised on glutathione Sepharose, incubated with MBP-CAND1 (6 nmol) in buffer A with 1% Triton X-100, 4 °C 2 h; CBB staining; details: both partners purified
[4] = target: B6; test: pull-down; His-Lnp ΔUb (0.6 nmol) immobilised on Ni-agarose, incubated with GST-Lnp Ub (3 nmol) or GST alone, or with GST-Lnp Ub (1.2 nmol) and MBP-CAND1 or MBP alone (6 nmol), in buffer G with 20 mM imidazole and 1 mM DTT, 4 °C 2 h; CBB staining; details: both partners purified
MBP-fused CAND1 [5] = target: T1, MBP-fused CAND1; test: pull-down; His-Lnp WT or deletion mutants (0.5 nmol) immobilised on Ni-agarose, incubated with MBP-CAND1 or MBP alone (3 nmol) in buffer G with 10 mM imidazole, 4 °C 2 h; CBB staining; details: both partners purified

binding result (MBP-fused CAND1 [5]) | Binder | further results
– | B1 | binding result (MBP-fused CAND1 [1]): binds; binding result [2]: binds
– | B2 | binding result (MBP-fused CAND1 [3]): binds
– | B3 | binding result [4]: binds
binds | B4 | –
binds | B5 | –
binds | B6 | –
binds | B7 | –
